From the nanobody polyreactivity screen of Harvey et al. (2022)

Test: yeast display, Sf9 membrane polyspecificity reagent, FACS + sequencing; frameworks hold sequencing errors
Summary of the method: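 Synthetic nanobody libraries on Saccharomyces cerevisiae BJ5465 were galactose-induced for 36–48 hours, stained 1 hour at 4 °C with 10% biotinylated, detergent-solubilized Sf9 membrane reagent and enriched on streptavidin microbeads. FACS then separated cells into low and high (top ~1%) gates by anti-HA (expression) and streptavidin (reagent binding) fluorescence. Genes were colony-PCR amplified, MiSeq 2 × 250 sequenced and CDR-length filtered. A clone's polyreactivity label is that of its gate of origin.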

Row | Sequence | polyreactivity (PSR sort gate)
1 | QVQLVESGGGLVQEGGSLRLSCAASGGIFGEYDMGGYRQAPGKERELVAAINWSGGSTYYADSVKGRFTISRDNAKNSVYLQMNSLKPEDTAVYYSAADRGYPRKVDYWGQVTQVTVSS | low polyreactivity
2 | QLQLVESGGGLVQAGGSLRLICAASGRIFATYAMGWYRQAPGKEREFVAAITKGGVRTYYADSVKGRFTISRDNAKNTVYLQMNSLKPEDTAVYYCAADAWVRGRYPYGYDYWGQGTQVTVSS | low polyreactivity
3 | QVHLVETGGGLVQAGGSPRLSCAASGRTLLDYGLGWYRQAPGKERELVAGITSSGGRSYADSVKGRLTISRDNAKNTVYLEMNSLKPEDSAGYYCAAYLNLSELLRYHYWGKGTQVTVSS | low polyreactivity
4 | QVQLVESGGGLVQAGGSLRLSCAASGSIFGRYGMVWSRPAPGKERELVAAITSATRTNYADSVKGRFTISRDNAKNTVYLQMNSLKPEDTAVYYCAKQTYRRLPQTPYNYWGQGSQVTVSS | low polyreactivity
5 | QVQLVESGGGLVQAGGSLRLSCAASGRTFSFYAMGWYRQAPGNERELVASMSRSGASTYYADSVKGRFTISRDNAKNTVYLQMNSLKPEDTAVYYCAAEWGRRYIYYYWGQGTQVTVSS | high polyreactivity
6 | QVQLVESGGGLVQAGGSLRLSCAASGSSFRVYAMGWYRQAPGKERELVAAISGSGGSTYYADSVKGRFTISRDNAKNTVYLQMNSLKPVDTAVYYCAARSWYTEYYWGQCTQVTVSS | high polyreactivity
7 | QVQLVESGGGLVQAGGSLRLSCAASGIIFTYYAMGWYRQAPGKERELVAAISYRGGSTYADSVKGRFTISRDNAKNTVSLQMNSLKPEDTAVYYCAAQRWYVYGQKYHYGYWGQGTQVTVSS | high polyreactivity
8 | QVQLVESGGGLVQAGGSLRLSCAASGRIFNIYAMGWYRQAPGKERELVAAIRGRGGSTYYADSVKGRFTISRDNAKNTVYLQMNSLKPEDTAVYYCAADSGPFYSKTQTRYGYWGQGTQVTVSS | high polyreactivity
9 | QVQLVESGGGLVQAGGSLRLSCAAYGSIFRWYAMGWYRQAPGKERELVAAISTSGGNKYYADSVKGRFTISRDNAKNTVYLQMNSLKPEDTAVYYCNALWYRSLSYRYDYWGQGTQVTVSS | high polyreactivity
10 | QVQLVESGGGLVQAGGSLRLSCAASGRTFYYYAMGWYRQAPGKERELVAVIRFSDGSTYYADSVKGRFTISRDNAKNTVYLQMNSLKPEDTAVYYCAAKGPRRWGSGFDYWGQGTQVTVSS | low polyreactivity
11 | QVQLVESAGGLVHAGGSLRLSCAASGNIFRWYAMGWYRQAPGKDRELVAAISSGGRTNYADSVKGRFTISRDNALNSVFLQMNSLKPEDTAVFYWYIVAGVTGRFYFWGQGTQVTVSS | low polyreactivity
12 | QVQLVESGGGLVQAGGSLRLICAASGFTFSYYAMGWSRQAPGKERELVAANSWSGTSTYYADSVKGRFTISRDNAKNTVYLQMNSLKPEDTAVYYCAAGYSASRKVDYRGQGTQVTVSS | high polyreactivity
13 | QVQLVESGGGLVQAGGTLRLSCAASGRISTHNAMGWYRQAPGKERELVAAITSGGRTTYADSVKGRFTISRDNAKNTVYLLMNSLKPEDTAVYYCNADTGLGSLDFDKRDYWGQGTQVTVSS | low polyreactivity
14 | QVQLVESGGGLVQAGGSLRLSCAASGSTFYKYAMGWYRQAPGKERELVASITWSGTSTYYADSVKGRFTISRDKAKNTVYLQMNSLKPEDTAVYYCNAGLESYYWGYTWEFDYWGQGTQVTVSS | low polyreactivity
15 | QVQLVESGGGLVQAGGSLRLSCAASGFIFANNAMGWYRQAPGKEREWVAAITSRGGGTYYADSVKGRFTISRDNAKNTVYLQMNCLKPEDTAVYYCAVRTYRFRHWPKYDYWGQGNQVTVSS | high polyreactivity
16 | QVQLVESGGGLVQAGGSLRLSCAASGFTFSYYAMGWYRKAPGKEMELVAAINWNGGSTYYADSVKGRFTISRDNAKNTVYLQMNSLKPEDTAVYYCNARQSYRYTQHGYWGQGTQVTVSS | high polyreactivity

Row | Sequence | polyreactivity (PSR sort gate)
17 | QVQLVESGGGLVQAGGSLRLSCAASGSTFLYYAMGCYRQAPGKDRELVARITTRVGRTYYADSVKGRFTISRDNAKNTVYLQMNSLKPEDTAVYYCNAPYLKSRFRAYYHWGQGTQVTVAS | high polyreactivity
18 | QVQLVESGGGLVQAGGSLRLSCAASGRTFYRNAMGWYRQAPGKERELVATITRRGGSTYYADSVKGRFTISRDNAKNTVYLQMISLKPEDTAVYYCAAGSKDLYRPYDYWGQGTQVTVSS | high polyreactivity
19 | QVQLVESGGGLVQSGGSLRLSCAASGRTYGYNAMGWYRQAPGKERELVAAISRSGDSTYYADSVKGRFTISRDNAKNTVYLQMNSLKPEDTAVYYCATRYVTTGYDYWGQGTQVTVSS | low polyreactivity
20 | QVQLVDSGGGLVQAGGSLRLSCAASGSTFTYYAMGWYRQAPGKERELVAAIRNSDGTTYYADSVKGRFTISRDNAKNTVYLQMNSLKPEDTAVYYCAAGPRGRWSTYDYWGQGTQVTVSS | low polyreactivity
21 | QVQLVESGGGLVQAGGSLRLSCAASGYIFLRNSLGWYRQAPGKERELVAAIRRTGGSTYYADSVKGRFTISRDNAKNTVYLQMNSLKPEDTAVYYCAKRSYTGYEYWGQGTQVTVSS | low polyreactivity
22 | QVQLVESGGGLVQAGGSLRLSCAASGFTFSINAMGWYRKAPGKERELVAGISWSGGITYYADSVKGRFTISRDNAKNTVYLQMNSLKPEDTAVYYCNTDYGLTTPVVWDDYWGQGTQVTVSS | low polyreactivity
23 | QVQLVESGGCLVQAGGSLRLSCAASGITFPGNAMGWYRPATGKERELVAVIRKSGTSTYYADSVKGRFTISRDNAKNTVYLQMISLIPEDTAVYYCAAGGPSTLDDYWGHGTQVTVSS | low polyreactivity
24 | QVQLVESGGGLVQAGGSLRLSCAASGSTFPYYAMGWYRQAPGKERELVAAISRRGTSTYYADSVKGRFTISRDNAKNTVYLQMNSLTPEDTAVYYCAAVGGAFPNRYYWGQGTQVTVSS | high polyreactivity
25 | QVHLVETGRGLLQSGGSLRISCAASGRTFIYNAMGWYRQAPGKERELVARISSGGGNTYYAYSVKWRFTISRDNANNTVYLLMNSLKPEDTAVYYCAIGWRPSFSYYWGQGTQVTVSS | high polyreactivity
26 | QVQLVESGGGLVQSGGSLRLSCAASGSTLTFNAMGWYRQAPGKERELVAAISWSDTDTYYADSVKGRFTISRDNAKNTVYLQMNSLKPEDTAVYYCAATLSAYEMDYWGQGTQVTVSS | low polyreactivity
27 | QVQLVESGGGLVQAGGSLRLSCAASGFTFYSYAMGWYRQAPGKERELVAAITDRGGSTYYADSVKGRFTISRDNAKNTVYLQMNSLKPEDTAVYYCAAASGIRSYSYGWLGREYYWGQGTQVTVSS | high polyreactivity
28 | QVQLVESGGCLVQAGGSLRLSCAASGIIFGRYTMGWYRQAPGKERELVAAITSSGITYYADSVKGRVTISRDNAKNTVYLQMNSLKPEDTAVYYCNADYSSPGYYWPYDYWGQGTQVSVSS | low polyreactivity
29 | QDQLVESGGGLVQAGGSLRLSCAASGYIFRYYAMGWYRQAPGKERELVAAISWNGGRTYYADSVKGRFTISRDNAKNTVYLQMNSLKPEDTAVYYCNTYWDGAREYDYWGQGTQVTVSS | high polyreactivity
30 | QVQLVESGVRLVQAGGSLRLSCAASGRTLKYNAMGWYIQAPGKERELVAAISYSGSSTYYADSVRGRFTISRDNAKNTVYLQMNSLKPEDTAVYYFNTARPTAAYDYWGQGTQVTVSS | low polyreactivity
31 | QVQLVESGGGLVQAGGSLRLSCAASGSIFSENTMGWYRQAPGKKRELVADITSGGSTNYADSVKGRFTISRDNAKNTVYLQMNSLKPEDTAVYYCAADYNGEYDYWGQGTQVTVSS | low polyreactivity
32 | QVQHVESGGGLVQAAGSLRLSCAASGRIFYRNAMGWSRQAPGKERELVAAISKSGGSTYYSDSVKGRFTISRDNAKNTVYLQMNSLKPEDTAVYYCAAGTRLSDGYYWGQGTQVTVSS | high polyreactivity
